Test results published in article PMC5335332, “Arsenite oxidation regulator AioR regulates bacterial chemotaxis towards arsenite in Agrobacterium tumefaciens GW4” (Scientific Reports, 2017).

What was measured:
[1] = target: T1, Mcp (sensing domain; truncated Mcp); experiment: intrinsic tryptophan fluorescence quenching at […] nm; assay type: binding, Agrobacterium tumefaciens; conditions: 1.0 μM protein, 0-25 μM As(III), 1 h, room temperature
T1 construct: predicted extracellular sensing domain, aa 43-325, EcoRI-HindIII in pET-28a(+), His-tagged, E. coli, Ni-NTA; one of 20 mcp genes in the genome; Trp residues W44, W166, W254, W308

[2] = tested on: T2, AioR DNA-binding domain (HTH) (Agrobacterium tumefaciens GW4), ORF:ca4d298f; experiment: DNase I footprinting; conditions: 20 mM Tris-HCl pH 7.0, 50 mM NaCl, 1 mM DTT, 10 mM MgCl2, 100 ug/mL BSA; 28 C, 30 min; 6% native PAGE in 1x TGE
T2 sequence: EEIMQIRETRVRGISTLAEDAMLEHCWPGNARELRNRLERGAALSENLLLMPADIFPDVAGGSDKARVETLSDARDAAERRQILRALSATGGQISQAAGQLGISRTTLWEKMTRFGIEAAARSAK

[3] = tested on: T2, AioR DNA-binding domain (HTH) (Agrobacterium tumefaciens GW4), ORF:ca4d298f; experiment: competition; conditions: 20 mM Tris-HCl pH 7.0, 50 mM NaCl, 1 mM DTT, 10 mM MgCl2, 100 ug/mL BSA; 28 C, 30 min; 6% native PAGE in 1x TGE
[4] = tested on: T2, AioR DNA-binding domain (HTH) (Agrobacterium tumefaciens GW4), ORF:ca4d298f; experiment: EMSA; conditions: 20 mM Tris-HCl pH 7.0, 50 mM NaCl, 1 mM DTT, 10 mM MgCl2, 100 ug/mL BSA; 28 C, 30 min; 6% native PAGE in 1x TGE

Row | Compound | Kd [1] | binding [2] | binding [3] | binding [4]
1 | O[As](O)O [As(III)] | 11 ± 3.02 µM | – | – | –
2 | TACGGAAAGCACAATACGTGTGCGAATGAAACCAGTTTGCAGTGTTCGGATTTCCGAACATCATTGAAATAAATGCCGTTATTTTGTGCAGTATAGATTGATTAATATGTTTTATTTATAATATAAATTTTTGCTACATAGCAGTATTCGGATTTAATCGGAGCCAGCATTTGCTTATTGCTACATATATAAACACCTATAAGCTCTAATATGATTCTTTTATGACAATAATATCGAAAAATTAACTATGCGATCCCAG (double strand) [mcp regulatory region, 259 bp] | – | binds | binds | binds
3 | TACGGAAAGCACAATACGTGTGCGAATGAAACCAGTTTGCAGTTGTCGGATTTCCGCTTATCATTGAAATAAATGCCGTTATTTTGTGCAGTATAGATTGATTAATATGTTTTATTTATAATATAAATTTTTGCTACATAGCAGTATTCGGATTTAATCGGAGCCAGCATTTGCTTATTGCTACATATATAAACACCTATAAGCTCTAATATGATTCTTTTATGACAATAATATCGAAAAATTAACTATGCGATCCCAG (double strand) [mutant mcp regulatory region] | – | – | – | no binding
4 | TTTCACGCACGACACTCTGGGAGAAGATGACGCGTTTCGGAATAGAAGCAGCCGCACGTTCGGCCAAATGAACAACGGCGGCGAGACGCTGTTCGGAAAAGCGAACGGGCAACTGGCCATCAAACGGGAAAATATCTATATTTCAGTATTTTAGGAATTGGCATAGCAAT (double strand) [aioBA regulatory region, 170 bp] | – | – | – | binds
